This assay deals with T1, human OX40 (CD134), full length, expressed on cells (activated human T cells); EL4-OX40 and CHO-OX40 … (human, UniProt P43489 29-277).
T1 construct: also called TNFRSF4; surface expressed OX40
T1 sequence: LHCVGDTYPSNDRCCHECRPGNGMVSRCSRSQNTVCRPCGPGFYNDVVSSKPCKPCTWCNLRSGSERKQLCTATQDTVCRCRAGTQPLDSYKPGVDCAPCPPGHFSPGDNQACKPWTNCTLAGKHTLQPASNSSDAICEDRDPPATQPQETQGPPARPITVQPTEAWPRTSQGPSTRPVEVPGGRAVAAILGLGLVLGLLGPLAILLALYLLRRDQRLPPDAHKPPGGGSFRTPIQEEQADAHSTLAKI
Briefly: flow cytometry, blocking of OX40L-FLAG binding to activated human T cells. The source says: The activated T cells were also stained with mouse anti-human OX40 antibody L106 (Becton Dickinson), which was directly conjugated to phycoerythrin or whose binding was detected with anti-mouse IgG-PE (Southern Biotechnology Associates.) OX40L Blocking Assays: To determine if the anti-human OX40 antibodies could block OX40L binding to soluble OX40 both ELISA and flow cytometric protocols were used. In the ELISA 96 well Nunc flat bottom plates were coated with recombinant soluble hOX40:hFc at 2 μg/ml in carbonate buffer (pH9.4) for one hour at 37° C. The plates were washed with PBS/0.1% Tween 20 and Superblock (Pierce) was added to the wells to block non-specific binding. The test antibodies were diluted to 1 μg/ml in PBS/Tween and added to the plates. After one hour incubation at 37° C., FLAG tagged recombinant soluble human OX40L (Alexis Biochemicals, San Diego, Calif.) was added to the appropriate wells without washing out the anti-OX40 antibodies. Following one hour incubation, the plates were washed and an anti-FLAG-peroxidase conjugated antibody (Sigma) was added to the wells for one hour at 37° C. The TMB substrate was added, after ten minutes the reaction was stopped with H₂SO₄, and the results were read at 450 nm using a microplate reader. In the flow cytometric assay, human CD4+ T cells were purified and activated with PHA+IL2 for two days. The cells were washed and resuspended in staining buffer and then incubated with increasing amounts of human anti-human OX40 antibodies for twenty minutes on ice, from 0.005-50 μg/ml. Soluble recombinant OX40L-FLAG was then added to the cells. The cells were washed and incubated with anti-FLAG conjugated to PE (Sigma). After another wash, the cells were fixed with 1% paraformaldehyde and analyzed on a FACScan or FACScalibur.
Slightly different results were obtained when a flow cytometric based assay was used to monitor blockade of soluble OX40L binding to activated human T cells that express OX40 (FIG. 5B). Activated human T cells were labeled with anti-OX40 antibodies followed by soluble flag tagged-human OX40L. Binding of OX40L was detected with anti-FLAG-PE antibody. Percent inhibition was determined using the same formula, i.e., (100−(sample/maximum binding))*100.
(In general: Flow cytometry measures light scatter and fluorescence of single cells or particles in a stream.)

The source of these data is patent US20170081417A1 (Kyowa Kirin, published 2017).

B1: 112Y55 human anti-human OX40 monoclonal antibody (hybridoma ATCC No. PTA-7220) (antibody, V domains shown)
VH: QITLKESGPTLVKPTQTLTLSCTFSGFSLSTSGVGVGWIRQPPGKALEWLALIHWDDAERYSPSLKSRLTITKDTSKNQVVLTMTNMDLVDTATYYCAHTRGAFDIWGQGTMVTVSS
VL: EIVLTQSPGTLSLSPGERAILSCRASQSVSSSFLAWYQQKPGQAPRLLIYGAFSRATGIPDRFSGSGSGTDFTLTISRLEPEDFAVYYCQQYDSSRTFGQGTKVEIK
Regarding B1, the 50% inhibitory concentration (IC50) was determined as 0.9 µg/mL.

B2: 112Y131 human anti-human OX40 monoclonal antibody (hybridoma ATCC No. PTA-7218) (antibody, V domains shown)
VH: QITLKESGPTLVKPTQTLTLTCTFSGFSLSTSGVGVGWIRQPPGKALEWLALIYWDDHSPYSPSLKSRLTITKDTSKNQVVLTMTNMDPVDTATYYCARTRGAFDIWGQGTMVTVSS
VL: EIVLTQSPATLSLSPGERATLSCRASQGVSSYLAWYQQKPGQAPRLLIYDASNRATGIPARFSGSGPGTDFTLTISSLEPEDFAVYYCQQRSNWHPTFGQGTKVEIK
As for B2, the concentration for half-maximal inhibition (IC50) stood at 0.91 µg/mL.

Broadly, the IC50 is the concentration needed to halve the response being measured. A high value points to a need for much substance.
